Measured values taken from patent US20210261648A1 (published 2021).

T1: FcγRIIb extracellular domain with C-terminal His tag (human, UniProt P31994 43-217)
T1 construct: extracellular domain; also called FcgRIIb
T1 sequence (looked up): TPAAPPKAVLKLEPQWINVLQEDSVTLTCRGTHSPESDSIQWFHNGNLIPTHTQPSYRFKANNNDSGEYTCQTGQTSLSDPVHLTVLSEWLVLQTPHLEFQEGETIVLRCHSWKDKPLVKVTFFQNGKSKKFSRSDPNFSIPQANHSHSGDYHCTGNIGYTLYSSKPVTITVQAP


Assays:
[1] = biological target: T1, FcγRIIb extracellular domain with …; experiment: SPR, captured antibody, FcgR analyte
Procedure: (§1) Relative binding activities were calculated for the results of analyzing interactions with the respective FcγRs according to the following method.

[2] = biological target: T2, FcγRIa extracellular domain with C-terminal His tag (human, UniProt P12314 16-292); experiment: SPR, captured antibody, FcgR analyte
T2 construct: also called FcgRIa
T2 sequence (P12314 16-292): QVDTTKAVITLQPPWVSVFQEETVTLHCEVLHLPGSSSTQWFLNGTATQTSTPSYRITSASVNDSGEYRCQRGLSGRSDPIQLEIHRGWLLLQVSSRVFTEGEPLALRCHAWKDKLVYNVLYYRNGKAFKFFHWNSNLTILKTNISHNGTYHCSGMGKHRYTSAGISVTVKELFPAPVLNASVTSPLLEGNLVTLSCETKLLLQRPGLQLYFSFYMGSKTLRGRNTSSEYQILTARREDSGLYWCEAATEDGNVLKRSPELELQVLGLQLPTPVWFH
Procedure: as §1

Row | relative binding activity [1] | relative binding activity [2] | Binder
1 | 147 relative (IL6R-BF648/IL6R-L = 100) | 102 relative (IL6R-BF648/IL6R-L = 100) | IL6R-BP176/IL6R-L (antibody, human IgG1, kappa) heavy: QVQLQESGPGLVKPSETLSLTCAVSGHSISHDHAWSWVRQPPGEGLEWIGFISYSGITNYNPSLQGRVTISRDNSKNTLYLQMNSLRAEDTAVYYCARSLARTTAMDYWGEGTLVTVSSASTKGPSVFPLAPSSKSTSGGTAALGCLVKDYFPEPVTVSWNSGALTSGVHTFPAVLQSSGLYSLSSVVTVPSSSLGTQTYICNVNHKPSNTKVDKKVEPKSCDKTHTCPPCPAPDLLGGDSVFLFPPKPKDTLMISRTPEVTCVVVDVSHEDPEVKFNWYVDGVEVHNAKTKPREEQYNSTYRVVSVLTVLHQDWLNGKEYKCKVSNDALPKPIEKTISKAKGQPREPQVYTLPPSRDELTKNQVSLTCLVKGFYPSDIAVEWESNGQPENNYKTTPPVLDSDGSFFLYSKLTVDKSRWQQGNVFSCSVMHEALHNHYTQESLSLSP light: not shown
2 | 133 relative (IL6R-BF648/IL6R-L = 100) | 86 relative (IL6R-BF648/IL6R-L = 100) | IL6R-BP143/IL6R-L (antibody, human IgG1, kappa) heavy: QVQLQESGPGLVKPSETLSLTCAVSGHSISHDHAWSWVRQPPGEGLEWIGFISYSGITNYNPSLQGRVTISRDNSKNTLYLQMNSLRAEDTAVYYCARSLARTTAMDYWGEGTLVTVSSASTKGPSVFPLAPSSKSTSGGTAALGCLVKDYFPEPVTVSWNSGALTSGVHTFPAVLQSSGLYSLSSVVTVPSSSLGTQTYICNVNHKPSNTKVDKKVEPKSCDKTHTCPPCPAPEYLGGDSVFLFPPKPKDTLMISRTPEVTCVVVDVSHEDPEVKFNWYVDGVEVHNAKTKPREEQYNSTYRVVSVLTVLHQDWLNGKEYKCKVSNAALPAPIEKTISKAKGQPREPQVYTLPPSRDELTKNQVSLTCLVKGFYPSDIAVEWESNGQPENNYKTTPPVLDSDGSFFLYSKLTVDKSRWQQGNVFSCSVMHEALHNHYTQESLSLSP light: not shown
3 | 121 relative (IL6R-BF648/IL6R-L = 100) | 64 relative (IL6R-BF648/IL6R-L = 100) | IL6R-BP144/IL6R-L (antibody, human IgG1, kappa) heavy: QVQLQESGPGLVKPSETLSLTCAVSGHSISHDHAWSWVRQPPGEGLEWIGFISYSGITNYNPSLQGRVTISRDNSKNTLYLQMNSLRAEDTAVYYCARSLARTTAMDYWGEGTLVTVSSASTKGPSVFPLAPSSKSTSGGTAALGCLVKDYFPEPVTVSWNSGALTSGVHTFPAVLQSSGLYSLSSVVTVPSSSLGTQTYICNVNHKPSNTKVDKKVEPKSCDKTHTCPPCPAPELLGDDSVFLFPPKPKDTLMISRTPEVTCVVVDVSHEDPEVKFNWYVDGVEVHNAKTKPREEQYNSTYRVVSVLTVLHQDWLNGKEYKCKVSNAALPAPIEKTISKAKGQPREPQVYTLPPSRDELTKNQVSLTCLVKGFYPSDIAVEWESNGQPENNYKTTPPVLDSDGSFFLYSKLTVDKSRWQQGNVFSCSVMHEALHNHYTQESLSLSP light: not shown
4 | 137 relative (IL6R-BF648/IL6R-L = 100) | 41 relative (IL6R-BF648/IL6R-L = 100) | IL6R-BP133/IL6R-L (antibody, human IgG1, kappa) heavy: QVQLQESGPGLVKPSETLSLTCAVSGHSISHDHAWSWVRQPPGEGLEWIGFISYSGITNYNPSLQGRVTISRDNSKNTLYLQMNSLRAEDTAVYYCARSLARTTAMDYWGEGTLVTVSSASTKGPSVFPLAPSSKSTSGGTAALGCLVKDYFPEPVTVSWNSGALTSGVHTFPAVLQSSGLYSLSSVVTVPSSSLGTQTYICNVNHKPSNTKVDKKVEPKSCDKTHTCPPCPAPDYLGGDSVFLFPPKPKDTLMISRTPEVTCVVVDVSHEDPEVKFNWYVDGVEVHNAKTKPREEQYNSTYRVVSVLTVLHQDWLNGKEYKCKVSNKALPKPIEKTISKAKGQPREPQVYTLPPSRDELTKNQVSLTCLVKGFYPSDIAVEWESNGQPENNYKTTPPVLDSDGSFFLYSKLTVDKSRWQQGNVFSCSVMHEALHNHYTQESLSLSP light: not shown

Second part, the binder before the results:

Row | Binder | relative binding activity [1] | relative binding activity [2]
5 | IL6R-2B261/IL6R-L (antibody, human IgG1, kappa) heavy: QVQLQESGPGLVKPSETLSLTCAVSGHSISHDHAWSWVRQPPGEGLEWIGFISYSGITNYNPSLQGRVTISRDNSKNTLYLQMNSLRAEDTAVYYCARSLARTTAMDYWGEGTLVTVSSASTKGPSVFPLAPSSKSTSGGTAALGCLVKDYFPEPVTVSWNSGALTSGVHTFPAVLQSSGLYSLSSVVTVPSSSLGTQTYICNVNHKPSNTKVDKKVEPKSCDKTHTCPPCPAPDLLGGDSVFLFPPKPKDTLMISRTPEVTCVVVDVSHEDPEVKFNWYVDGVEVHNAKTKPREEQDNSTYRVVSVLTVLHQDWLNGKEYKCKVSNKALPAPIEKTISKAKGQPREPQVYTLPPSRDELTKNQVSLTCLVKGFYPSDIAVEWESNGQPENNYKTTPPVLDSDGSFFLYSKLTVDKSRWQQGNVFSCSVMHEALHNHYTQESLSLSP light: not shown | 115 relative (IL6R-BF648/IL6R-L = 100) | 100 relative (IL6R-BF648/IL6R-L = 100)
6 | IL6R-BP082/IL6R-L (antibody, human IgG1, kappa) heavy: QVQLQESGPGLVKPSETLSLTCAVSGHSISHDHAWSWVRQPPGEGLEWIGFISYSGITNYNPSLQGRVTISRDNSKNTLYLQMNSLRAEDTAVYYCARSLARTTAMDYWGEGTLVTVSSASTKGPSVFPLAPSSKSTSGGTAALGCLVKDYFPEPVTVSWNSGALTSGVHTFPAVLQSSGLYSLSSVVTVPSSSLGTQTYICNVNHKPSNTKVDKKVEPKSCDKTHTCPPCPAPDLLGGDSVFLFPPKPKDTLMISRTPEVTCVVVDVSHEDPEVKFNWYVDGVEVHNAKTKPREEQYNSTYRVVSVLTVLHQDWLNGKEYKCKVSNKALPKPIEKTISKAKGQPREPQVYTLPPSRDELTKNQVSLTCLVKGFYPSDIAVEWESNGQPENNYKTTPPVLDSDGSFFLYSKLTVDKSRWQQGNVFSCSVMHEALHNHYTQESLSLSP light: not shown | 136 relative (IL6R-BF648/IL6R-L = 100) | 74 relative (IL6R-BF648/IL6R-L = 100)
7 | IL6R-BP132/IL6R-L (antibody, human IgG1, kappa) heavy: QVQLQESGPGLVKPSETLSLTCAVSGHSISHDHAWSWVRQPPGEGLEWIGFISYSGITNYNPSLQGRVTISRDNSKNTLYLQMNSLRAEDTAVYYCARSLARTTAMDYWGEGTLVTVSSASTKGPSVFPLAPSSKSTSGGTAALGCLVKDYFPEPVTVSWNSGALTSGVHTFPAVLQSSGLYSLSSVVTVPSSSLGTQTYICNVNHKPSNTKVDKKVEPKSCDKTHTCPPCPAPDLLGGDSVFLFPPKPKDTLMISRTPEVTCVVVDVSHEDPEVKFNWYVDGVEVHNAKTKPREEQYNSTYRVVSVLTVLHQDWLNGKEYKCKVSNAALPKPIEKTISKAKGQPREPQVYTLPPSRDELTKNQVSLTCLVKGFYPSDIAVEWESNGQPENNYKTTPPVLDSDGSFFLYSKLTVDKSRWQQGNVFSCSVMHEALHNHYTQESLSLSP light: not shown | 150 relative (IL6R-BF648/IL6R-L = 100) | 91 relative (IL6R-BF648/IL6R-L = 100)
8 | IL6R-BP086/IL6R-L (antibody, human IgG1, kappa) heavy: QVQLQESGPGLVKPSETLSLTCAVSGHSISHDHAWSWVRQPPGEGLEWIGFISYSGITNYNPSLQGRVTISRDNSKNTLYLQMNSLRAEDTAVYYCARSLARTTAMDYWGEGTLVTVSSASTKGPSVFPLAPSSKSTSGGTAALGCLVKDYFPEPVTVSWNSGALTSGVHTFPAVLQSSGLYSLSSVVTVPSSSLGTQTYICNVNHKPSNTKVDKKVEPKSCDKTHTCPPCPAPELLGGDSVFLFPPKPKDTLMISRTPEVTCVVVDVSHEDPEVKFNWYVDGVEVHNAKTKPREEQYNSTYRVVSVLTVLHQDWLNGKEYKCKVSNAALPKPIEKTISKAKGQPREPQVYTLPPSRDELTKNQVSLTCLVKGFYPSDIAVEWESNGQPENNYKTTPPVLDSDGSFFLYSKLTVDKSRWQQGNVFSCSVMHEALHNHYTQESLSLSP light: not shown | 137 relative (IL6R-BF648/IL6R-L = 100) | 72 relative (IL6R-BF648/IL6R-L = 100)
9 | IL6R-BP083/IL6R-L (antibody, human IgG1, kappa) heavy: QVQLQESGPGLVKPSETLSLTCAVSGHSISHDHAWSWVRQPPGEGLEWIGFISYSGITNYNPSLQGRVTISRDNSKNTLYLQMNSLRAEDTAVYYCARSLARTTAMDYWGEGTLVTVSSASTKGPSVFPLAPSSKSTSGGTAALGCLVKDYFPEPVTVSWNSGALTSGVHTFPAVLQSSGLYSLSSVVTVPSSSLGTQTYICNVNHKPSNTKVDKKVEPKSCDKTHTCPPCPAPELLGGDSVFLFPPKPKDTLMISRTPEVTCVVVDVSHEDPEVKFNWYVDGVEVHNAKTKPREEQDNSTYRVVSVLTVLHQDWLNGKEYKCKVSNKALPKPIEKTISKAKGQPREPQVYTLPPSRDELTKNQVSLTCLVKGFYPSDIAVEWESNGQPENNYKTTPPVLDSDGSFFLYSKLTVDKSRWQQGNVFSCSVMHEALHNHYTQESLSLSP light: not shown | 122 relative (IL6R-BF648/IL6R-L = 100) | 50 relative (IL6R-BF648/IL6R-L = 100)
10 | IL6R-BP085/IL6R-L (antibody, human IgG1, kappa) heavy: QVQLQESGPGLVKPSETLSLTCAVSGHSISHDHAWSWVRQPPGEGLEWIGFISYSGITNYNPSLQGRVTISRDNSKNTLYLQMNSLRAEDTAVYYCARSLARTTAMDYWGEGTLVTVSSASTKGPSVFPLAPSSKSTSGGTAALGCLVKDYFPEPVTVSWNSGALTSGVHTFPAVLQSSGLYSLSSVVTVPSSSLGTQTYICNVNHKPSNTKVDKKVEPKSCDKTHTCPPCPAPELLGDDSVFLFPPKPKDTLMISRTPEVTCVVVDVSHEDPEVKFNWYVDGVEVHNAKTKPREEQYNSTYRVVSVLTVLHQDWLNGKEYKCKVSNKALPKPIEKTISKAKGQPREPQVYTLPPSRDELTKNQVSLTCLVKGFYPSDIAVEWESNGQPENNYKTTPPVLDSDGSFFLYSKLTVDKSRWQQGNVFSCSVMHEALHNHYTQESLSLSP light: not shown | 152 relative (IL6R-BF648/IL6R-L = 100) | 19 relative (IL6R-BF648/IL6R-L = 100)
11 | IL6R-BP129/IL6R-L (antibody, human IgG1, kappa) heavy: QVQLQESGPGLVKPSETLSLTCAVSGHSISHDHAWSWVRQPPGEGLEWIGFISYSGITNYNPSLQGRVTISRDNSKNTLYLQMNSLRAEDTAVYYCARSLARTTAMDYWGEGTLVTVSSASTKGPSVFPLAPSSKSTSGGTAALGCLVKDYFPEPVTVSWNSGALTSGVHTFPAVLQSSGLYSLSSVVTVPSSSLGTQTYICNVNHKPSNTKVDKKVEPKSCDKTHTCPPCPAPDLLGGDSVFLFPPKPKDTLMISRTPEVTCVVVDVSHEDPEVKFNWYVDGVEVHNAKTKPREEQDNSTYRVVSVLTVLHQDWLNGKEYKCKVSNKALPKPIEKTISKAKGQPREPQVYTLPPSRDELTKNQVSLTCLVKGFYPSDIAVEWESNGQPENNYKTTPPVLDSDGSFFLYSKLTVDKSRWQQGNVFSCSVMHEALHNHYTQESLSLSP light: not shown | 138 relative (IL6R-BF648/IL6R-L = 100) | 68 relative (IL6R-BF648/IL6R-L = 100)
